We go through 3 substances from patent US20220135655A1.

In this assay the target is H5VN04 recombinant trimeric hemagglutinin (HA) (influenza A virus H5VN04 (H5N1)).

As for CR6261 Y98A scFv, the fold reduction of binding against CR6261 was above 4000 fold.

On to F10 Y98A scFv, for which the fold reduction of binding against F10 is above 3000 fold.

With CR6261 F54A scFv, the fold reduction of binding against CR6261 turned out to be 800 fold.
